The target of assay [1] is T1, CaBdf1 BD1 (GST-tagged, wild-type) (Candida albicans (strain SC5314 / ATCC …, UniProt Q5A4W8)).
T1 chain: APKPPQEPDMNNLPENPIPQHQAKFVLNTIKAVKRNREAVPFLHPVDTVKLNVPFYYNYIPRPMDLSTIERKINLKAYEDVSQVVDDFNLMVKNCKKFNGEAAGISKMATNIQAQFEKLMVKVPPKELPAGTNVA
Put plainly: histone peptide array (Active Motif MODified), 1 uM GST-tagged bromodomain, anti-GST detection, normalized mean intensity.

For assay [2], the target named is T2, CaBdf1 BD2 (GST-tagged, wild-type) (Candida albicans (strain SC5314 / ATCC …, UniProt Q5A4W8)).
T2 chain: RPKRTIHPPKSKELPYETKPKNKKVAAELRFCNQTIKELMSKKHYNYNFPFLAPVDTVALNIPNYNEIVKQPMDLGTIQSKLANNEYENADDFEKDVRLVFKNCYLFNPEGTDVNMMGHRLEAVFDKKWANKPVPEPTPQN
Described as above.

Square brackets hold non-standard residues; d marks the D form. Ends that are not written are not given here. Arg(Me2a) = CN(C)C(=N)NCCC[C@H](N)C(=O)O; Lys(Me3) = C[N+](C)(C)CCCC[C@H](N)C(=O)O; Arg(Me2s) = CN=C(NC)NCCC[C@H](N)C(=O)O; pT = C[C@@H](OP(=O)(O)O)[C@H](N)C(=O)O; Lys(Me2) = CN(C)CCCC[C@H](N)C(=O)O; pS = N[C@@H](COP(=O)(O)O)C(=O)O; Me2a = not defined here; me2a = not defined here

Consider SGRGK(Ac)QGGKARAKAKSRSS, for which the binding score was determined as 0.021 in assay [1] and 0.0074 in assay [2].

Take ARTKQTARKSTGGKAPRKQ (A Rme2a T Kme2 Q T A Rme2a Kme2 S T G G K A P R K Q): the figures for the binding score in assay [1] and in assay [2] were 0.00399 and 0.00555, respectively.

Turning to AR(Me2a)[pT]K(Ac)QTARKSTGGKAPRKQ (reading uncertain), the binding score in assay [1] came out at 0.00943; in assay [2] it was 0.00111.

Regarding ARTKQTARKSTGGKAPRKQ (A R T Kme1 Q T A Rme2a Kme3 S T G G K A P R K Q), the binding score in assay [1] was determined as 0.00254; in assay [2], 0.00333.

With ARTKQTARKSTGGKAPRKQ (A Rme2s T Kme3 Q T A Rme2a Kme1 S T G G K A P R K Q), the binding score was 0.0272 in assay [1] and 0.00222 in assay [2].

As for [pS]GRGK(Ac)QGGKARAK(Ac)AKSRSS, the values for the binding score in assay [1] and in assay [2] were 0.0964 and 0.0148, respectively.

AR[pT]K(Me3)QTARKSTGGKAPRKQ: the values for the binding score in assay [1] and in assay [2] were 0.00435 and 0.00296, respectively.

Consider SGRGKGGKGLGKGGAKRHR (pS G Rme2a G K G G K G L G K G G A K R H R), for which the binding score came to 0.00471 in assay [1] and 0.00148 in assay [2].

Turning to ARTKQTARKSTGGKAPRKQ (A R T K Q T A Rme2a Kme2 pS pT G G K A P R K Q), the binding score in assay [1] was determined as 0.00471; in assay [2], 0.00555.

In the case of A[Arg(Me2a)]T[Lys(Me3)]QTA[Arg(Me2s)][Lys(Me2)]STGGKAPRKQ, the binding score in assay [1] is 0.00326; in assay [2], 0.00592.

As to PDPAK(Ac)SAPAPKK(Ac)G[pS]K(Ac)KAVT, the binding score in assay [1] was 0.0982; in assay [2], 0.232.

With ARTKQTARKSTGGKAPRKQ (A Rme2s T Kme1 Q T A R Kme3 S T G G K A P R K Q), the binding score in assay [1] amounted to 0.00326; in assay [2], 0.00259.

On to ARTKQTARKSTGGKAPRKQ (A Rme2s T Kme1 Q T A Rme2s Kme2 S T G G K A P R K Q), for which the binding score in assay [1] is 0.00254; in assay [2], 0.00333.

In the case of ARTKQTARKSTGGKAPRKQ (A Rme2a T Kme3 Q T A R K S T G G K A P R K Q), the binding score worked out at 0.0109 in assay [1] and 0.00259 in assay [2].

On to PDPAK(Ac)SAPAPKKGSK(Ac)KAVT, for which the binding score in assay [1] is 0.0323; in assay [2] it was 0.00962.

PRKQLATKAAR(Me2s)K(Me3)SAPATGG: the binding score in assay [1] worked out at 0.00181; in assay [2], 0.0037.

As for ARTKQTARKSTGGKAPRKQ (A R T K Q T A R Kme2 S T G G K A P R K Q), the binding score was 0.00109 in assay [1] and 0.00296 in assay [2].

As to PDPAK(Ac)SAPAPKK(Ac)G[pS]KKAVT, the binding score in assay [1] stood at 0.00979; in assay [2], 0.00481.

SGRGKGGKGLGKGGAKRHR (pS G Rme2a G Kac G G K G L G K G G A K R H R): the binding score in assay [1] was 0.0105; in assay [2], 0.00444.

Regarding ARTKQTARKSTGGKAPRKQ (A R T K Q T A Rme2s Kme2 pS T G G K A P R K Q), the binding score in assay [1] came to 0.00363; in assay [2] it was 0.00333.

ARTKQTA[Arg(Me2a)]K(Me)[pS][pT]GGKAPRKQ: the binding score is 0.00471 in assay [1] and 0.0037 in assay [2].

On to SGRGKGGKGLGKGGAKRHR (pS G Rme2s G Kac G G Kac G L G K G G A K R H R), for which the binding score in assay [1] is 0.054; in assay [2], 0.0352.

Turning to A[Arg(Me2s)]TK(Ac)QTARK(Me)STGGKAPRKQ, the binding score was 0.00798 in assay [1] and 0.00333 in assay [2].

Take PRKQLATKAA[Arg(Me2a)]K(Me)SAPATGG: the figures for the binding score in assay [1] and in assay [2] were 0.00399 and 0.00444, respectively.

As for ARTKQTARKSTGGKAPRKQ (A Rme2s T Kac Q T A Rme2s Kme1 S T G G K A P R K Q), the values for the binding score in assay [1] and in assay [2] were 0.00653 and 0.00407, respectively.

As to AR(Me2a)TK(Me2)QTARKSTGGKAPRKQ (reading uncertain), the binding score in assay [1] is 0.00109; in assay [2] it was 0.0037.

Regarding PRKQLATKAAR(Me2a)K(Ac)SAPATGG (reading uncertain), the results for the binding score in assay [1] and in assay [2] were 0.0189 and 0.00999, respectively.

Consider ARTKQTARKSTGGKAPRKQ (A R T K Q T A R K pS pT G G K A P R K Q), for which the binding score is 0.00326 in assay [1] and 0.00407 in assay [2].

Turning to RKSAPATGGVKKPHRYRPG (R K S A P A T G G V Kme2 K P H R Y R P G) [H3 26-45], the binding score in assay [1] stood at 0.0058; in assay [2], 0.00555.

With AR(Me2a)[pT]K(Me2)QTARKSTGGKAPRKQ (reading uncertain), the binding score in assay [1] turned out to be 0.00181; in assay [2], 0.

On to PRKQLATKAA[Arg(Me2a)]KSAPATGG, for which the binding score in assay [1] amounted to 0.00326; in assay [2] it was 0.00148.

For AR[pT]K(Ac)QTARKSTGGKAPRKQ, the results for the binding score in assay [1] and in assay [2] were 0.00725 and 0.00333, respectively.

For the molecule ARTKQTARKSTGGKAPRKQ (A Rme2a T Kme1 Q T A Rme2s Kme2 S T G G K A P R K Q), the binding score in assay [1] is 0.00218; in assay [2] it was 0.00222.

As for A[Arg(Me2a)]TK(Ac)QTA[Arg(Me2s)][Lys(Me3)]STGGKAPRKQ, the binding score came to 0.00653 in assay [1] and 0.0122 in assay [2].

Consider ARTK(Me)QTAR(me2a)K(Me)STGGKAPRKQ (reading uncertain), for which the binding score in assay [1] was 0.00508; in assay [2] it was 0.00407.

AR(Me2s)TK(Ac)QTARKSTGGKAPRKQ: the binding score was 0.00616 in assay [1] and 0.00074 in assay [2].

Take ARTKQTARKSTGGKAPRKQ (A R T K Q T A R Kme1 S T G G K A P R K Q): the figures for the binding score in assay [1] and in assay [2] were 0.00435 and 0.00407, respectively.

PRKQLATKAAR(Me2a)K(Me2)[pS]APATGG (reading uncertain): the binding score in assay [1] was found to be 0.00145; in assay [2], 0.00555.

For the molecule PRKQLATKAARKSAPATGG (P R K Q L A T K A A Rme2a Kme2 S A P A T G G), the values for the binding score in assay [1] and in assay [2] were 0.00363 and 0.00555, respectively.

Turning to ARTKQTARKSTGGKAPRKQ (A R T Kme3 Q T A Rme2s Kme3 S T G G K A P R K Q), the binding score was 0.00399 in assay [1] and 0.00407 in assay [2].

With AR(Me2a)TK(Me)QTAR(Me2s)K(Ac)STGGKAPRKQ (reading uncertain), the results for the binding score in assay [1] and in assay [2] were 0.0341 and 0.0037, respectively.

As to SGRGKGGKGLGKGGAKRHR (S G Rme2s G Kac G G Kac G L G K G G A K R H R), the binding score in assay [1] worked out at 0.0334; in assay [2], 0.0322.

On to AR[pT]K(Me)QTARKSTGGKAPRKQ, for which the binding score turned out to be 0.00471 in assay [1] and 0.00296 in assay [2].

The values above are taken from PMC5454392, “Selective BET bromodomain inhibition as an antifungal therapeutic strategy” (Nature Communications, 2017).
